Common to all, as to experiment: co-IP with anti-FLAG, N-FLAG B3GNT2, mass spectrometry
In one assay the target is T1, LGALS7B (human, UniProt P47929 1-136).
T1 construct: also called NP_001035972.1

Another assay addresses T2, CCT3 (human, UniProt P49368 1-545).
T2 construct: also called NP_005989.3
T2 sequence (looked up): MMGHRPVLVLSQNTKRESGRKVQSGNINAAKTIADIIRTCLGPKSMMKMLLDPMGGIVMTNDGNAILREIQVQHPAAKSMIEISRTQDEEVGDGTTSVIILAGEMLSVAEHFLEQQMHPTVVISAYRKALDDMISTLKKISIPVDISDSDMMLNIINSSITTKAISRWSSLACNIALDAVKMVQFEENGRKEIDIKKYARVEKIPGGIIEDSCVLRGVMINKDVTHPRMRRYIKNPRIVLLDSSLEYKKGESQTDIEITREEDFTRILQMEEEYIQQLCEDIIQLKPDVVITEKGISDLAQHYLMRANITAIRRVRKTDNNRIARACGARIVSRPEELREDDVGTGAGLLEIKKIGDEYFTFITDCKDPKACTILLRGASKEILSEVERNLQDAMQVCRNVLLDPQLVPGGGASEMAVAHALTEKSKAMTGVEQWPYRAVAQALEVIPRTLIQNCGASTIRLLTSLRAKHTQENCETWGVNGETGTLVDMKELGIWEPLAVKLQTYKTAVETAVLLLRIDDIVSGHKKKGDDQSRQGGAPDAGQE

For another assay, the target named is T3, PURA (human, UniProt Q00577 2-322).
T3 construct: also called NP_005850.1
T3 sequence (looked up): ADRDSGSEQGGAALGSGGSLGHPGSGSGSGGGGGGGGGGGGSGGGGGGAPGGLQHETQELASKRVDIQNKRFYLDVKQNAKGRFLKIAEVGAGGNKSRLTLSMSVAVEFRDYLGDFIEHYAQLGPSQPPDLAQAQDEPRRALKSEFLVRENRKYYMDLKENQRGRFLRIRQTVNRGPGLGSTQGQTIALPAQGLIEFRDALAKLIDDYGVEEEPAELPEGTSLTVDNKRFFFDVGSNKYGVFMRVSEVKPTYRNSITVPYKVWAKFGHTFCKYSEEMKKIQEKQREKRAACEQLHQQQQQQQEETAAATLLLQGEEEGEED

In the next assay the target is T4, TPM2 (human, UniProt P07951-2 1-284, limits assumed).
T4 construct: also called NP_001288155.1

In another assay the target is T5, PLOD1 (human, UniProt Q02809 19-727).
T5 construct: also called NP_000293.2 (+1)
T5 sequence (looked up): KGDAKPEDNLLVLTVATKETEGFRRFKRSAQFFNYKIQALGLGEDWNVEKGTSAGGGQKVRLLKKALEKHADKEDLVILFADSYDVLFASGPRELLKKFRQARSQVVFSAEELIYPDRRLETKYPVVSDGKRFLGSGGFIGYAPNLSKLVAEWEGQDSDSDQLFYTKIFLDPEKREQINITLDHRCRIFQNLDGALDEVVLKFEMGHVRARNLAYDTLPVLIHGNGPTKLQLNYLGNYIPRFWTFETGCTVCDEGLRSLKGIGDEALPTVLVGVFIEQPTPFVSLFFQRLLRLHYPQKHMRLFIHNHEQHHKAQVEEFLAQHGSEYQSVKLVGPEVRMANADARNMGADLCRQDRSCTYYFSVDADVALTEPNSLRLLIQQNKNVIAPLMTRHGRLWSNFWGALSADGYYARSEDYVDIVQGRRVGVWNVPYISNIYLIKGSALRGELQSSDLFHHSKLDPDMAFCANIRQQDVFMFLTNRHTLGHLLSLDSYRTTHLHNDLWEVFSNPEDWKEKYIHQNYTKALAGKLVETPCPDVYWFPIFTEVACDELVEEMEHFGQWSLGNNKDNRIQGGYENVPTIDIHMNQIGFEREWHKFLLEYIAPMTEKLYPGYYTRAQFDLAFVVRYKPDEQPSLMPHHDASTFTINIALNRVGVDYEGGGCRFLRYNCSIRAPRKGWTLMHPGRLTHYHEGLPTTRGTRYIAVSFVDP

Another assay concerns the target T6, PRRC2C (human, UniProt Q9Y520-4 1-2817, limits assumed).
T6 construct: also called NP_055987.2 (+10)

In another assay the target is T7, DDX17 (human, UniProt Q92841 1-729, limits assumed).
T7 construct: also called NP_001091974.1

B1: N-terminal FLAG tagged B3GNT2 (enzyme, human, UniProt Q9NY97 1-397, looked up)
chain: MSVGRRRIKLLGILMMANVFIYFIMEVSKSSSQEKNGKGEVIIPKEKFWKISTPPEAYWNREQEKLNRQYNPILSMLTNQTGEAGRLSNISHLNYCEPDLRVTSVVTGFNNLPDRFKDFLLYLRCRNYSLLIDQPDKCAKKPFLLLAIKSLTPHFARRQAIRESWGQESNAGNQTVVRVFLLGQTPPEDNHPDLSDMLKFESEKHQDILMWNYRDTFFNLSLKEVLFLRWVSTSCPDTEFVFKGDDDVFVNTHHILNYLNSLSKTKAKDLFIGDVIHNAGPHRDKKLKYYIPEVVYSGLYPPYAGGGGFLYSGHLALRLYHITDQVHLYPIDDVYTGMCLQKLGLVPEKHKGFRTFDIEEKNKNNICSYVDLMLVHSRKPQEMIDIWSQLQSAHLKC
notes: FLAG-tagged ORF overexpressed in cells; pulled down from lysate with mouse anti-FLAG; also called N-FLAG B3GNT2; N-term FLAG; not shown: N-terminal FLAG tag
For the molecule B1, the entries for the “co-IP mass spectrometry count” value with LGALS7B and in the assay with CCT3 were 7 and 0, respectively.

B2: N-terminal FLAG tagged B3GNT2 (enzyme, human, UniProt Q9NY97 1-397, looked up)
chain: MSVGRRRIKLLGILMMANVFIYFIMEVSKSSSQEKNGKGEVIIPKEKFWKISTPPEAYWNREQEKLNRQYNPILSMLTNQTGEAGRLSNISHLNYCEPDLRVTSVVTGFNNLPDRFKDFLLYLRCRNYSLLIDQPDKCAKKPFLLLAIKSLTPHFARRQAIRESWGQESNAGNQTVVRVFLLGQTPPEDNHPDLSDMLKFESEKHQDILMWNYRDTFFNLSLKEVLFLRWVSTSCPDTEFVFKGDDDVFVNTHHILNYLNSLSKTKAKDLFIGDVIHNAGPHRDKKLKYYIPEVVYSGLYPPYAGGGGFLYSGHLALRLYHITDQVHLYPIDDVYTGMCLQKLGLVPEKHKGFRTFDIEEKNKNNICSYVDLMLVHSRKPQEMIDIWSQLQSAHLKC
notes: FLAG-tagged ORF overexpressed in A375 cells; pulled down from the lysate with mouse anti-FLAG; also called N-FLAG B3GNT2; N-term FLAG; not shown: N-terminal FLAG tag
Regarding B2, the “co-IP/MS count, N-term FLAG” value with PURA worked out at 0; with TPM2, 0; with PLOD1 it was 0; with PRRC2C it was 6; with DDX17, 23.
